Assay results as given in patent US7192733B2, “Methods and means for modulating PGE synthase activity” (Karolinska Innovations AB, priority 1998, dated 2007).

Legend:
[1] = tested on: 17.5 kDa protein from sheep seminal vesicles (PGE synthase activity); conditions: read-out: Km for PGH2; cited from earlier work
[2] = tested on: 180 kDa protein from sheep seminal vesicles (PGE synthase activity); conditions: larger (180 kDa) protein; read-out: Km for PGH2; cited from earlier work
human PGE synthase = biological target: T1, human PGE synthase (Homo sapiens, UniProt O14684); assay: PGE synthase enzyme assay (inhibition of PGE2 formation from PGH2); format: biochemical; conditions: 1 mM for 5 min prior to incubation; membrane fraction from bacteria expressing PGE synthase
T1 construct: made in house; host or cells: E. coli BL21 (DE3) pLysSL, vector pSP19T7LT; membrane fraction
T1 sequence (O14684 1-152): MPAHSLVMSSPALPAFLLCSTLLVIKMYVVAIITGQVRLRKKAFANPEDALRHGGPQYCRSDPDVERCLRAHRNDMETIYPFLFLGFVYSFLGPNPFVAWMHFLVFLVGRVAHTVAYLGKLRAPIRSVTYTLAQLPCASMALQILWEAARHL
Experimental: (§1) The protein sample was diluted in potassium inorganic phosphate buffer (0.1 M, pH=7.4) containing 2.5 mM reduced glutathione. The reaction (total volume=100 μl) was started by the addition of 10 μM PGH2 with or without 0.1 μCi 3H PGH2 and terminated with 60 μl acetonitrile/HCl, lowering the pH to 3.2. In order to determine the formation of either PGF2α, PGE2 or PGD2, an aliquot (60 μl) was analyzed by reverse-phase-HPLC combined with UV detection (195 nm) and/or radioactivity detection using an online β-RAM detector (Inus System, Inc.). The reverse-phase HPLC column was Nova-Pak C18 (3.9×150 mm, 4 μm particle size) obtained from Waters. The mobile phase was water, acetonitrile and trifluoroacetic acid (70:30:0.007, by vol) with a flow rate of 1 ml/min.
(§2) For analysis of 12-HHT, a mobile phase of methanol, water and acetic acid (70:30:0,01, by vol) was used and UV detection at 236 nm. The amounts of produced PGE2 and 12-HHT were quantified by integration of the areas under the eluted peaks at 195 and 236 nm, respectively.
(§3) The membrane fraction (0.02 mg total protein/ml) isolated from bacteria expressing PGE synthase was incubated for 2 min in the presence of PGH2 (10 μM including 1 μCi 3H PGH2) and reduced glutathione (2.5 mM).

[3] = tested on: PGE synthase expression in A549 cells; assay: Induction of PGE synthase protein in A549 cells, Western blot; format: cell-based, human; conditions: 1 ng/ml, 24 h
Experimental: Samples were diluted and boiled for two min in SDS-containing sample buffer (Laemmli, U. K. (1970) Nature 227, 680–5). Proteins were separated through 14% polyacrylamide gels (Novex) and electroblotted (Towbin, H., et al.(1979) PNAS USA 76, 4350–4) onto PVDF (Pall) membranes. Transfer efficiency was visualized using pre-stained standards (Novex). Membranes were then soaked for 1 h at 25° C. in Tris-buffered saline (100 mM Tris-HCl, pH=7.5, 150 mM NaCl) containing 0.1% (v/v) Tween and 5% (w/v) non-fat dried milk. The membrane was subsequently washed twice in 0.1% T-TBS followed by 1 h incubation at 25° C. with the indicated antiserum (1:2000 dilution) in 0.05% (v/v) T-TBS and 2% (w/v) non-fat dried milk. […]
In order to investigate whether or not PGE synthase may also be regulated by this cytokine, A549 cells were cultured for 24 h in the presence of 1 ng/ml IL-1β. Normal cells as well as cells treated with IL-1β were subsequently analyzed for PGE synthase expression by SDS-PAGE followed by Western blotting.
Total protein corresponding to 0.2×10^6 cells grown for 24 h in the presence (1 ng/ml) or absence of IL-1β was fractionated by SDS-PAGE and transferred to PVDF membrane. […] Also analyzed was the commercial available, partly purified, PGE synthase from sheep seminal vesicles (6 μg) as well as the membrane fraction from bacteria expressing human PGE synthase (5 μg).

PGH2 = assay: PGE synthase activity of fractions from cells expressing recombinant protein (PGH2 to PGE2, RP-HPLC); format: biochemical; conditions: for PGE synthase activity: membrane fraction or microsomes of cells expressing the control protein
Experimental: as §1, §2, §3
In this experiment the various dilutions of the membrane fraction obtained from bacteria expressing PGE synthase were incubated in the presence of PGH2 (10 μM) and GSH (2.5 mM) for 2 min. The PGE2 formation was analyzed and quantified by RP-HPLC and UV detection at 195 nm as described in Materials and Methods above.
The membrane fraction obtained from bacteria expressing PGE synthase (0.02 mg/ml) was incubated with PGH2 for the indicated times in the presence (filled circles) or absence (open circles) of glutathione. Filled triangles represent non-enzymatic (buffer only) PGE2 formation after incubation with PGH2. The product formation was analyzed by RP-HPLC and PGE2 was detected and quantified using UV absorbance at 195 nm.

Molecule: CCCCC[C@H](O)/C=C/[C@@H]1[C@@H](C/C=C\CCCC(=O)O)[C@@H]2C[C@H]1OO2 (relative stereo) [PGH2, 15(S)-hydroxy-9α, 11α-peroxidoprosta-5-cis-13-trans-dienoic acid]
- Km [1]: 40 µM
- Km [2]: 150 µM

Molecule: CCN1C(=O)C=CC1=O [N-ethylmaleimide]
- enzyme activity after treatment of the membrane fraction (human PGE synthase): abolished

Molecule: IL-1β: proinflammatory cytokine interleukin-1β
- PGE synthase protein expression [3]: induced

Molecule: MGST2: microsomal glutathione S-transferase 2 expressed in Sf9 cells, microsomes [reference compound]
- PGE synthase activity (PGH2): no PGE synthase activity

B1: ratMGST1: rat microsomal glutathione S-transferase 1 expressed in bacteria, control membrane fraction (protein, UniProt P08011 2-155, looked up)
Microsomal glutathione …: ADLKQLMDNEVLMAFTSYATIILAKMMFLSSATAFQRLTNKVFANPEDCAGFGKGENAKKFLRTDEKVERVRRAHLNDLENIVPFLGIGLLYSLSGPDLSTALIHFRIFVGARIYHTIAYLTPLPQPNRGLAFFVGYGVTLSMAYRLLRSRLYL
- PGE synthase activity (PGH2): no PGE synthase activity

B2: PGE synthase: human PGE synthase (SEQ ID NO: 2) expressed in E. coli, tested as bacterial membrane fraction (protein, listed as Homo sapiens)
chain: T1 sequence (O14684 1-152)
- glutathione dependent PGE synthase activity (PGH2; bacterial membrane fraction, PGH2, reduced glutathione): 0.25 µmol/min/mg
- deduced specific activity (PGH2; estimating that 1% of the bacterial membrane protein is MGST1-L1): 25 µmol/min/mg
- specific activity under linear conditions (subtracting background formation) (PGH2; membrane fraction 0.02 mg/ml, PGH2 10 μM, GSH 2.5 mM): 250 nmol/min/mg
